In this experiment the target is AtGAPC1 C149S mutant (Arabidopsis thaliana). Description: dynamic light scattering.

By stoichiometry N is commonly meant the number of molecules, sites or subunits per partner or assembly.

Take AtGAPC1 C149S mutant (enzyme): the stoichiometry N worked out at 4.

Source of the values: paper doi:10.1101/545921.
